Laboratory results reported in publication PMC7673785.

Biological target: RIPK3 (UniProt Q9Y572)
Experiment: anti-Flag co-IP, Myc blot
Conditions: reference: wild-type Myc-CSNK1G2; sites S211,T215

binding against the reference: lost
Substance: CSNK1G2 (from UniProt P78368) S211A/T215A
